According to patent EP1418184A1:

Biological target: IL-12 receptor on activated peripheral blood lymphocytes (human) (UniProt P42701)
Experiment: cell-based or functional assay

IFN-gamma secretion of preactivated T cells (ELISA, 48 h), activity against natural IL-12 at equimolar amounts (times lower than IL-12): 5 to 10
Substance: HRS3-scFv-hi-IL-12 fusion protein
